Experimental data taken from patent US20100015155A1 (Eli Lilly, published 2010).

How the values were obtained:
[1] = target: T1, human soluble Abeta (1-40) (human, UniProt P05067 672-711); assay: KinExA equilibrium, antigen on sepharose beads, soluble Abeta (1-40) titrated, 37 C; 1A1 Fab, not PEGylated
T1 construct: domain: Abeta (1-40); The numbers 1-40 count on the Aβ peptide, not on the APP precursor entry; also called Human Abeta (1-40); human abeta
Experimental: (§1) KinExA analysis is used as an orthogonal approach to measure binding affinity through equilibrium binding analysis due to the slow off-rate of the antigen Fab complex. A KinExA 3000 instrument (Sapidyne Inst. Inc.) is used to measure binding kinetics. Briefly, the antigen is covalently coupled to sepharose beads and the binding of free Fab/Fab-PEG to the beads is detected on the instrument. […] After the incubation, free Fab/Fab-PEG in each equilibrated sample is determined on the KinExA 3000 according to the manufacturer's instructions. Kd values are determined by n-Curve Analysis using KinExA 3000 software.

[2] = target: T1, human soluble Abeta (1-40); assay: KinExA equilibrium, ratio of KD values
Experimental: as §1

T1 sequence (P05067 672-711 limits assumed): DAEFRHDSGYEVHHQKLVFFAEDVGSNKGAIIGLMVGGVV

Kd [1]: 0.019 nM
fold affinity against murine 266 Fab [2]: ~10 fold
B1: 1A1-Fab (humanized antibody Fab fragment, LCVR of SEQ ID NO: 1 and HCVR of SEQ ID NO: 2) (Fab, V domains shown)
VH: EVQLVESGGGLVKPGGSLRLSCAASGYTFSRYSMSWVRQAPGKGLEWVGQINIRGCNTYYPDTVKGRFTISRDDSKNTLYLQMNSLKTEDTAVYYCTTGDFWGQGTLVTVSS
VL: DIVMTQTPLSLSVTPGQPASISCSSSQSLIYSDGNAYLHWYLQKPGQSPQLLIYKVSNRFSGVPDRFSGSGSGTDFTLKISRVEAEDVGVYYCTQSTHSPWTFGGGTKVEIK
notes: Fab without PEG; CH1 and CL are not; The light chain is human kappa, since it is captured or detected with anti-human kappa; also called humanized 1A1-Fab; 1A1 N56C Fab
